Measurements from paper PMC12342048.

Target: mammalian cell-expressed human COMP (Cartilage Oligomeric Matrix Protein) (human) (UniProt P49747)
Sequence (P49747 21-757): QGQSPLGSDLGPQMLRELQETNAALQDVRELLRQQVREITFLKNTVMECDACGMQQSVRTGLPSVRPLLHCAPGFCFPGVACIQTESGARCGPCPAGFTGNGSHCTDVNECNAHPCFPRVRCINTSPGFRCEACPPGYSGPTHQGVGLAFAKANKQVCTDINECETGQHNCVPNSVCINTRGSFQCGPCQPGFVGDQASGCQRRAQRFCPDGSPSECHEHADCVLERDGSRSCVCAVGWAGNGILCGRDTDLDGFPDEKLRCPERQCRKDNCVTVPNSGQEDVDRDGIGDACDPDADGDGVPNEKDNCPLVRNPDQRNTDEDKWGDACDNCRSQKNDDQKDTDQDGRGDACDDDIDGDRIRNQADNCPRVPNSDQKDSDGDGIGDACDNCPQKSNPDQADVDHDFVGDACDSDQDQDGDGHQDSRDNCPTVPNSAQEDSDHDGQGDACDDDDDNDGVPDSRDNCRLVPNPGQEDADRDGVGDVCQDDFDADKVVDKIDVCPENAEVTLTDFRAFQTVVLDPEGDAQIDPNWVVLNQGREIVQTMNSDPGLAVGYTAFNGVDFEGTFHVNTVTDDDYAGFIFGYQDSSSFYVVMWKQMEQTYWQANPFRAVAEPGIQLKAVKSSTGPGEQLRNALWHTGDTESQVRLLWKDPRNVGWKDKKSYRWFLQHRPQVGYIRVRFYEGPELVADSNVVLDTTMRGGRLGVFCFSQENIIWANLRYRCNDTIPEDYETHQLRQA

Sequence of ADAMTS4 variant β1-β2 (residues 693–698 swapped with those of ADAMTS13) (O75173 52-837, change not shown): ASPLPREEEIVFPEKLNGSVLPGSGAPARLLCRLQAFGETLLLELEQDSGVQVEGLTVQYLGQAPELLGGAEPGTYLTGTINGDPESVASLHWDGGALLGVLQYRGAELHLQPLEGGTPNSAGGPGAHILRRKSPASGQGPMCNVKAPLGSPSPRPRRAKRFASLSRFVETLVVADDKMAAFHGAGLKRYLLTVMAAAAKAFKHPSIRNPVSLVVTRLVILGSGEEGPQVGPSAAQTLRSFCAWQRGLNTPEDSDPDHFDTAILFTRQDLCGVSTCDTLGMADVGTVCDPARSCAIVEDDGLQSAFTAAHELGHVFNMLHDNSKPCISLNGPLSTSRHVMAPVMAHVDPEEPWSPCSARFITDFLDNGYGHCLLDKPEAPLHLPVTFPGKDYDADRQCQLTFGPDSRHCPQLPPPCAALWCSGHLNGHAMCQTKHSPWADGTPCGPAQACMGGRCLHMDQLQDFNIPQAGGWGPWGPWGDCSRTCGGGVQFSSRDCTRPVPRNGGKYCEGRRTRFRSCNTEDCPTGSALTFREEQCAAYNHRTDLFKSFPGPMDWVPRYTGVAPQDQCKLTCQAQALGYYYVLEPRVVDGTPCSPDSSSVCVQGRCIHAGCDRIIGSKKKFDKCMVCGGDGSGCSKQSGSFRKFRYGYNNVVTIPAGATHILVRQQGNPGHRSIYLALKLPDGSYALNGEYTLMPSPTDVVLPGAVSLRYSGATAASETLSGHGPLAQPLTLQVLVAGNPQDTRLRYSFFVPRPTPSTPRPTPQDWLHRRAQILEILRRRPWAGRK
Sequence of ADAMTS4 variant β3-β4; β9-β10 (both loops replaced with those of ADAMTS13) (O75173 52-837, change not shown): as above

reduction in COMPase activity at the S77-V78 bond compared to WT ADAMTS4 (hCOMP 520 nM, enzyme 12 nM, 2 h, 37 °C; densitometry of anti-QQS77 immunoblot, WT set as 100 %) | Substance
25 % reduction | ADAMTS4 variant β1-β2 (residues 693–698 swapped with those of ADAMTS13) (from UniProt O75173 52-837) (enzyme)
20 % reduction | ADAMTS4 variant β3-β4; β9-β10 (both loops replaced with those of ADAMTS13) (from UniProt O75173 52-837) (enzyme)
